How the values were obtained:
AML myeloblasts (BMMC) = assay: SCNP of paired diagnosis and relapse AML BMMC and independent diagnostic set (Example 5); assay type: cell-based, human; conditions: paired diagnosis samples of Patients 1 and 2
Description: All AML bone marrow mononuclear cells (BMMC) were derived from the bone marrow (BM) of AML patients treated at MD Anderson Cancer Center (MDACC) between September 1999 and September 2006. Clinical data were de-identified in compliance with Health Insurance Portability and Accountability Act regulations. Patient/sample inclusion criteria required a diagnosis of French-American-British (FAB) classification of M0 through M7 AML (excluding M3) AML, collection prior to therapy initiation and at least 50% viability upon sample thaw. For the identification of chemoresistant signaling profiles, two longitudinally paired BMMC samples at diagnosis (collection prior to the initiation of induction chemotherapy) and first relapse, were examined. An independent test set comprised of 47 BMMC samples collected at diagnosis from AML patients with a disease response of CR after high dose cytarabine based chemotherapy was used to assess the ability of the identified signaling profiles to predict disease relapse. Healthy, unstimulated BMMC (n=2) were purchased from a commercial source (All Cells) to serve as a control. All samples underwent fractionation over Ficoll-Hypaque prior to cryopreservation with 90% fetal bovine serum and 10% dimethyl sulfoxide and storage in liquid nitrogen.
The SCNP assay measured response to growth factors and cytokines involved in hematopoietic progenitor or myeloid biology (SCF, FLT3L, G-CSF, IL-27), drug transporter (ABCG2, MRP-1) and chemokine receptors (CXCR4) associated with adverse disease prognosis in AML, and the c-Kit growth factor receptor for SCF. The SCF and FLT3L-mediated PI3K/Akt and MAPK pathway is important for maintaining the hematopoietic stem cell pool; G-CSF-mediated Jak/STAT pathway activation is important for neutrophilic differentiation of hematopoietic progenitor cells; interleukin (IL)-27 mediated Jak/STAT pathway activation is important in regulating proliferation and differentiation of hematopoietic stem cells; CXCR4 expression is associated with disease relapse and decreased survival; and drug transporter expression levels (i.e. ABCG2 and MRP-1) are known to be associated with adverse prognosis in AML. All together, approximately 20 signaling nodes were evaluated in each sample.
SCNP assays were performed as described previously. Cryopreserved samples were thawed at 37° C. and washed once in warm PBS containing 10% FBS (HyClone, Waltham, Mass., USA) and 2 mM EDTA. […] The cells were re-suspended in RPMI containing 1% FBS, aliquoted to 100,000 cells/condition and rested for 1-2 hours at 37° C. […]

[1] = tested on: healthy bone marrow myeloblast (BMMC); assay: FLT3L-induced signaling in healthy control BMMC myeloblasts (Example 9); assay type: cell-based, human; conditions: BMMC samples
Description: This example identifies intracellular signaling pathways associated with FLT3 ITD in two independent cohorts of diagnostic AML samples that serve as an improvement over current clinical tools in the identification of clinically meaningful altered FLT 3 and has implications for cohort selection in the development of FLT3 inhibitors. The two cohorts of data were further analyzed to investigate the differences in signaling between FLT-WT and FLT-ITD samples. The first cohort of data (“study 1”) comprised the 34 samples from University Health Network outlined in Table 16 and Table 19. The second cohort of data (“study 2”) comprised an 83 sample subset of MD Anderson Cancer Center data outlined in Table 16 (and Table 19). The 83 sample subset was selected based on known FLT3 mutation status. Both cohorts of data were used to investigate differences in FLT3 signaling between leukemic blasts and control data.
In order to further characterize wild-type FLT receptor signaling in AML, we compared FLT3L-induced signaling in the myeloblast population of control BMMC samples with FLT3L-induced signaling in the leukemic blast population of FLT3-WT AML samples.

Row | Molecule | responsive subpopulation in diagnosis samples (AML myeloblasts (BMMC)) | responsive cells in diagnostic AML bone marrow samples (AML myeloblasts (BMMC)) | FLT3L activation of p-Akt and p-S6 at later time point [1] | range of FLT3L-induced S6 signaling [1] | FLT3L-induced p-Akt and p-S6 ([1]; early time points (4 minutes, 10 minutes))
1 | IL-27: interleukin-27 (protein, UniProt Q8NEV9 29-243; Q14213 21-229, looked up) Interleukin-27 subunit alpha: FPRPPGRPQLSLQELRREFTVSLHLARKLLSEVRGQAHRFAESHLPGVNLYLLPLGEQLPDVSLTFQAWRRLSDPERLCFISTTLQPFHALLGGLGTQGRWTNMERMQLWAMRLDLRDLQRHLRFQVLAAGFNLPEEEEEEEEEEEEERKGLLPGALGSALQGPAQVSWPQLLSTYRLLHSLELVLSRAVRELLLLSKAGHSVWPLGFPTLSPQP Interleukin-27 subunit beta: RKGPPAALTLPRVQCRASRYPIAVDCSWTLPPAPNSTSPVSFIATYRLGMAARGHSWPCLQQTPTSTSCTITDVQLFSMAPYVLNVTAVHPWGSSSSFVPFITEHIIKPDPPEGVRLSPLAERQLQVQWEPPGSWPFPEIFSLKYWIRYKRQGAARFHRVGPIEATSFILRAVRPRARYYVQVAAQDLTDYGELSDWSLPATATMSLGK | no IL-27 responsive subpopulation was identified | – | – | – | –
2 | FLT-3L: fms-like tyrosine kinase receptor-3 ligand (protein, UniProt P49771 27-235, looked up) Fms-related tyrosine kinase 3 …: TQDCSFQHSPISSDFAVKIRELSDYLLQDYPVTVASNLQDEELCGGLWRLVLAQRWMERLKTVAGSKMQGLLERVNTEIHFVTKCAFQPPPSCLRFVQTNISRLLQETSEQLVALKPWITRQNFSRCLELQCQPDSSTLPPPWSPRPLEATAPTAPQPPLLLLLLLPVGLLLLAAAWCLHWQRTRRRTPRPGEQVPPVPSPQDLLLVEH | – | ~1% | largely diminished by 15 minutes | narrow range of S6 signaling | increased levels of p-Akt and p-S6

Source: patent publication US8399206B2, “Methods for diagnosis, prognosis and methods of treatment” (Nodality, Inc., priority 2008, dated 2013)
